The results in this text go back to patent US20110118131A1 (published 2011).

Where a chain is given by its changes, count along the chain named. Numbers in names are those of the source.

For this experiment, the target named is T1, IL-1β (UniProt P01584 117-269).
T1 construct: Antigen immobilised on the Biacore chip
In words: Biacore, periplasmic extract. Background: Surface plasmon resonance follows binding to a sensor surface in real time, without labels.

B1: XPA23 light chain L96E (Fab, V domains shown)
VH: EVQLLESGGGLVQPGGSLRLSCAASGFTFSKYFMFWVRQAPGKGLEWVSVISPSGGMTRYADSVKGRFTISRDNSKNTLYLQMNSLRAEDTAVYYCARVGYGGNSDYWGQGTLVTVSS
VL: DIQMTQSPSSVSASVGDRLTIICRASQDINRWLAWYQQTPGNAPKLLIHSATSLQSGVPSRFSGSGSGTDFTLTINSLQPEDFATYYCQQADSFPETFGGGTKVEIK
Consider B1, for which the binding result is “no binding”.

B2: XPA23 light chain P95W (Fab, V domains shown)
VH: B1 VH
VL: B1 VL with P95W, E96L
Consider B2, for which the binding result was “no binding”.

B3: XPA23 light chain N30Y (Fab, V domains shown)
VH: B1 VH
VL: B1 VL with N30Y, E96L
On to B3, for which the “fold difference in affinity vs original” value came out at 1.4 fold.

B4: XPA23 light chain L96W (Fab, V domains shown)
VH: B1 VH
VL: B1 VL with E96W
On to B4, for which the “fold difference in affinity vs original” value stood at 4.49 fold.

B5: XPA23 light chain N30E (Fab, V domains shown)
VH: B1 VH
VL: B1 VL with N30E, E96L
For the molecule B5, the “fold difference in affinity vs original” value is 0.64 fold.

B6: XPA23 light chain L96R (Fab, V domains shown)
VH: B1 VH
VL: B1 VL with E96R
On to B6, for which the binding result was “no binding”.

B7: XPA23 light chain N30P (Fab, V domains shown)
VH: B1 VH
VL: B1 VL with N30P, E96L
On to B7, for which the “fold difference in affinity vs original” value is 0.69 fold.

B8: XPA23 light chain N30W (Fab, V domains shown)
VH: B1 VH
VL: B1 VL with N30W, E96L
Turning to B8, the “fold difference in affinity vs original” value is 1.06 fold.

B9: XPA23 light chain P95Q (Fab, V domains shown)
VH: B1 VH
VL: B1 VL with P95Q, E96L
For the molecule B9, the binding result is given as “no binding”.

B10: XPA23 light chain N30V (Fab, V domains shown)
VH: B1 VH
VL: B1 VL with N30V, E96L
B10: the “fold difference in affinity vs original” value worked out at 0.89 fold.

B11: XPA23 light chain Q27F (Fab, V domains shown)
VH: B1 VH
VL: B1 VL with Q27F, E96L
As for B11, the “fold difference in affinity vs original” value stood at 2.96 fold.

B12: XPA23 light chain N30Q (Fab, V domains shown)
VH: B1 VH
VL: B1 VL with N30Q, E96L
Turning to B12, the “fold difference in affinity vs original” value turned out to be 0.6 fold.

B13: XPA23 light chain L96F (Fab, V domains shown)
VH: B1 VH
VL: B1 VL with E96F
Turning to B13, the “fold difference in affinity vs original” value came out at 0.28 fold.

B14: XPA23 light chain P95K (Fab, V domains shown)
VH: B1 VH
VL: B1 VL with P95K, E96L
Regarding B14, the binding result was “no binding”.

B15: XPA23 light chain N30F (Fab, V domains shown)
VH: B1 VH
VL: B1 VL with N30F, E96L
Consider B15, for which the “fold difference in affinity vs original” value was determined as 1.59 fold.

B16: XPA23 light chain N30R (Fab, V domains shown)
VH: B1 VH
VL: B1 VL with N30R, E96L
For B16, the “fold difference in affinity vs original” value is 0.74 fold.

B17: XPA23 light chain N30A (Fab, V domains shown)
VH: B1 VH
VL: B1 VL with N30A, E96L
For B17, the “fold difference in affinity vs original” value worked out at 0.61 fold.

B18: XPA23 light chain L96S (Fab, V domains shown)
VH: B1 VH
VL: B1 VL with E96S
B18: the “fold difference in affinity vs original” value turned out to be 0.23 fold.

B19: XPA23 light chain P95R (Fab, V domains shown)
VH: B1 VH
VL: B1 VL with P95R, E96L
Turning to B19, the binding result is reported as “no binding”.

B20: XPA23 light chain Q27E (Fab, V domains shown)
VH: B1 VH
VL: B1 VL with Q27E, E96L
For B20, the “fold difference in affinity vs original” value worked out at 1.08 fold.

B21: XPA23 light chain L96H (Fab, V domains shown)
VH: B1 VH
VL: B1 VL with E96H
B21: the “fold difference in affinity vs original” value is 0.07 fold.

B22: XPA23 light chain L96Y (Fab, V domains shown)
VH: B1 VH
VL: B1 VL with E96Y
Turning to B22, the binding result is listed as “no binding”.

B23: XPA23 light chain Q27D (Fab, V domains shown)
VH: B1 VH
VL: B1 VL with Q27D, E96L
Regarding B23, the “fold difference in affinity vs original” value is 1.07 fold.

B24: XPA23 light chain N30H (Fab, V domains shown)
VH: B1 VH
VL: B1 VL with N30H, E96L
As for B24, the “fold difference in affinity vs original” value turned out to be 1 fold.

B25: XPA23 light chain P95D (Fab, V domains shown)
VH: B1 VH
VL: B1 VL with P95D, E96L
Take B25: the “fold difference in affinity vs original” value came out at 1.32 fold.

B26: XPA23 light chain P95Y (Fab, V domains shown)
VH: B1 VH
VL: B1 VL with P95Y, E96L
On to B26, for which the binding result is on record as “no binding”.

B27: XPA23 light chain N30K (Fab, V domains shown)
VH: B1 VH
VL: B1 VL with N30K, E96L
For the molecule B27, the “fold difference in affinity vs original” value turned out to be 0.61 fold.

B28: XPA23 light chain N30L (Fab, V domains shown)
VH: B1 VH
VL: B1 VL with N30L, E96L
For the molecule B28, the “fold difference in affinity vs original” value is 0.68 fold.

B29: XPA23 light chain P95S (Fab, V domains shown)
VH: B1 VH
VL: B1 VL with P95S, E96L
For the molecule B29, the “fold difference in affinity vs original” value is 4.05 fold.

B30: XPA23 light chain L96K (Fab, V domains shown)
VH: B1 VH
VL: B1 VL with E96K
With B30, the binding result is listed as “no binding”.

B31: XPA23 light chain N30T (Fab, V domains shown)
VH: B1 VH
VL: B1 VL with N30T, E96L
Take B31: the “fold difference in affinity vs original” value is 0.97 fold.

B32: XPA23 light chain N30S (Fab, V domains shown)
VH: B1 VH
VL: B1 VL with N30S, E96L
Take B32: the “fold difference in affinity vs original” value was 0.72 fold.

B33: XPA23 light chain N30D (Fab, V domains shown)
VH: B1 VH
VL: B1 VL with N30D, E96L
With B33, the “fold difference in affinity vs original” value stood at 0.81 fold.

B34: XPA23 light chain P95E (Fab, V domains shown)
VH: B1 VH
VL: B1 VL with P95E, E96L
Regarding B34, the “fold difference in affinity vs original” value turned out to be 0.88 fold.

B35: XPA23 light chain L96Q (Fab, V domains shown)
VH: B1 VH
VL: B1 VL with E96Q
Consider B35, for which the “fold difference in affinity vs original” value was found to be 0.21 fold.

B36: XPA23 light chain P95F (Fab, V domains shown)
VH: B1 VH
VL: B1 VL with P95F, E96L
Consider B36, for which the “fold difference in affinity vs original” value stood at 0.98 fold.

B37: XPA23 light chain P95N (Fab, V domains shown)
VH: B1 VH
VL: B1 VL with P95N, E96L
For B37, the binding result is listed as “no binding”.

B38: XPA23 light chain N30G (Fab, V domains shown)
VH: B1 VH
VL: B1 VL with N30G, E96L
On to B38, for which the “fold difference in affinity vs original” value worked out at 0.71 fold.

B39: XPA23 light chain Q27G (Fab, V domains shown)
VH: B1 VH
VL: B1 VL with Q27G, E96L
For B39, the binding result is listed as “no binding”.

B40: XPA23 light chain P95H (Fab, V domains shown)
VH: B1 VH
VL: B1 VL with P95H, E96L
For B40, the binding result is “no binding”.

B41: XPA23 light chain Q27A (Fab, V domains shown)
VH: B1 VH
VL: B1 VL with Q27A, E96L
For B41, the “fold difference in affinity vs original” value was found to be 1.47 fold.

B42: XPA23 light chain N30I (Fab, V domains shown)
VH: B1 VH
VL: B1 VL with N30I, E96L
Regarding B42, the “fold difference in affinity vs original” value amounted to 0.65 fold.

B43: XPA23 light chain L96N (Fab, V domains shown)
VH: B1 VH
VL: B1 VL with E96N
Consider B43, for which the “fold difference in affinity vs original” value was 0.06 fold.
